Data published in paper PMC5116672.

B1: CD147: N152Q (protein)
parent chain: MAAALFVLLGFALLGTHGASGAAGTVFTTVEDLGSKILLTCSLNDSATEVTGHRWLKGGVVLKEDALPGQKTEFKVDSDDQWGEYSCVFLPEPMGTANIQLHGPPRVKAVKSSEHINEGETAMLVCKSESVPPVTDWAWYKITDSEDKALMNGSESRFFVSSSQGRSELHIENLNMEADPGQYRCNGTSSKGSDQAIITLRVRSHLAALWPFLGIVAEVLVLVTIIFIYEKRRKPEDVLDDDDAGSAPLKSSGQHQNDKGKNVRQRNSS
B2: CD147: N44Q (protein)
parent chain: B1 parent chain
B3: CD147: castanospermine (CAS) 24 h (protein)
parent chain: B1 parent chain
B4: CD147: castanospermine (CAS) 12 h (protein)
parent chain: B1 parent chain
B5: CD147: N44/186Q (protein)
parent chain: B1 parent chain
B6: CD147: N186Q (protein)
parent chain: B1 parent chain
B7: CD147: N152/186Q (protein)
parent chain: B1 parent chain
B8: CD147: N44/152Q (protein)
parent chain: B1 parent chain
B9: CD147: N44/152/186Q (protein)
parent chain: B1 parent chain
B10: CD147: castanospermine (CAS) 12 h on N44/186Q (protein)
parent chain: B1 parent chain

Key:
[1] = protein accumulation on Gp78 siRNA, immunoblot; conditions: glycan lost; control: CD147(WT)-EGFP
[2] = confocal immunofluorescence with ER-Tracker, stable cells; conditions: glycan lost; control: CD147(WT)-EGFP
[3] = immunofluorescence colocalisation with chaperones; conditions: glycan lost; control: CD147(WT)-EGFP
[4] = anti-EGFP immunoblot of total lysates; mRNA unchanged; conditions: glycan lost; control: CD147(WT)-EGFP
[5] = immunofluorescence, aggregation with GRP78, 24 h castanospermine; conditions: glycan changed form; control: CD147(WT)-EGFP cells without CAS
[6] = immunofluorescence with CNX, 12 h castanospermine; conditions: glycan changed form
[7] = confocal immunofluorescence with ER-Tracker, transient double mutants; conditions: glycan lost; control: CD147(WT)-EGFP

| Protein | localisation_or_trafficking [2] | localisation_or_trafficking [7] | other results |
| --- | --- | --- | --- |
| B1 | changes | – | degradation_or_half_life [1]: decreases; localisation_or_trafficking [3]: increases; expression_or_secretion [4]: decreases |
| B2 | changes | – | – |
| B3 | – | – | stability_or_folding [5]: decreases |
| B4 | – | – | localisation_or_trafficking ([6]; control: CD147(WT)-EGFP cells without CAS): changes |
| B5 | – | no change | – |
| B6 | changes | – | – |
| B7 | – | changes | – |
| B8 | – | changes | – |
| B9 | changes | – | expression_or_secretion [4]: decreases |
| B10 | – | – | localisation_or_trafficking ([6]; control: CD147(N44/186Q)-EGFP cells without CAS): changes |
